Source: paper PMC12170339, “Cryo-EM structure of the NDH–PSI–LHCI supercomplex from Spinacia oleracea” (Nature Structural & Molecular Biology, 2025)

T1: NdhH (S. oleracea, UniProt Q9M3I5 1-393)
T1 construct: NdhH, SubA module of chloroplast NDH, S. oleracea; source: purified from spinach (S. oleracea) leaves as part of the NDH–PSI–LHCI-2 supercomplex
T1 sequence (looked up): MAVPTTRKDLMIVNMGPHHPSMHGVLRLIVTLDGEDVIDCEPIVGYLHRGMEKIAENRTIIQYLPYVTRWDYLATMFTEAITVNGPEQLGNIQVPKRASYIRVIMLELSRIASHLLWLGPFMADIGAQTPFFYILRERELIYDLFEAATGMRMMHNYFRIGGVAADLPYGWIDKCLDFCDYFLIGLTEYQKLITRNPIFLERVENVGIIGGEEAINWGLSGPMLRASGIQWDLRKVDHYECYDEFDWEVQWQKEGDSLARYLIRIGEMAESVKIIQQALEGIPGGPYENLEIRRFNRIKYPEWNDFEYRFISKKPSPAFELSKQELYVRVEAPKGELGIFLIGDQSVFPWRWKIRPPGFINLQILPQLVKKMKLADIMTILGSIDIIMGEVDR

T2: NdhK (S. oleracea, UniProt Q9M3M0 1-227)
T2 construct: NdhK, SubA module of chloroplast NDH, S. oleracea; source: purified from spinach (S. oleracea) leaves as part of the NDH–PSI–LHCI-2 supercomplex
T2 sequence (looked up): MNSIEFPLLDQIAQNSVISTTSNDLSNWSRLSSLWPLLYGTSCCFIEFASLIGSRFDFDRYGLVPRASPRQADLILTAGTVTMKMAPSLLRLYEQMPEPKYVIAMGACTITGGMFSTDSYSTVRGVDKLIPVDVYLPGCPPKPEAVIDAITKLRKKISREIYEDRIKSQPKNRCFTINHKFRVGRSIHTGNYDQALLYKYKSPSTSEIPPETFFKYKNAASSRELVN

B1: NdhA (natural protein, S. oleracea, UniProt Q9M3I6 1-365, looked up)
chain: MIIDTTTTKVQAINSFSRLEFLKEVYETIWMLFPILILVLGITIGVLVIVWLEREISASIQQRIGPEYAGPLGILQALADGTKLLFKENLLPSRGDTYLFSIGPSIAVISILLGYLIIPFGSRLVLADLSIGVFLWIAVSSIAPIGLLMSGYGSNNKYSFLGGLRAAAQSISYEIPLTLCVLSISLLSNSSSTVDIVEAQSKYGFWGWNLWRQPIGFIVFIISSLAECERLPFDLPEAEEELVAGYQTEYSGIKFGLFYVASYLNLLISSLFVTVLYLGGWNLSIPYIFISEFFEINKIDGVFGTTIGIFITLAKTFLFLFIPITTRWTLPRLRMDQLLNLGWKFLLPISLGNLLLTTSSQLFSL
notes: NdhA, SubM module of chloroplast NDH, S. oleracea; also called NhdA; source: purified from spinach (S. oleracea) leaves as part of the NDH–PSI–LHCI-2 supercomplex
B2: NdhC (natural protein, S. oleracea, UniProt Q9M3L9 1-120, looked up)
chain: MFLLYEYDIFWAFLIISSVIPILAFLFSGILAPISKGPEKLSSYESGIEPMGDAWLQFRIRYYMFALVFVVFDVETVFLYPWAMSFDILGVSVFIEALIFVLILIVGLVYAWRKGALEWS
notes: NdhC, SubM module of chloroplast NDH, S. oleracea; source: purified from spinach (S. oleracea) leaves as part of the NDH–PSI–LHCI-2 supercomplex

Assays:
Assay in all cases: cryo-EM structure; single-particle cryo-EM of the endogenous NDH–PSI–LHCI-2 supercomplex co-purified from spinach stromal lamellae in t-PCCαM; buffer A: 30 mM HEPES pH 7.8, 2 mM MgCl2, 2 mM KCl, 0.5 mM Na2-EDTA, 100 mM NaCl, 2 mM DTT, 0.04% t-PCCαM; 38,385 particles; 3.0–3.3 Å
[1] = target: NADPH dehydrogenase (NDH) complex (S. oleracea) (UniProt Q9M3I6)
[2] = target: T1, NdhH; settings: both partners purified
[3] = target: T2, NdhK; settings: both partners purified
[4] = target: B1; settings: both partners purified

Molecule | stoichiometry N (NDH per PSI–LHCI) [1] | binding result [2] | binding result [3] | binding result [4]
PSI–LHCI-2 (photosystem I–light-harvesting complex I) (from UniProt P06511 1-750; P06512 1-734; P10098 1-81; P12353 51-212; P12355 78-231; P12357 70-167; P22179 50-144; P17228 1-33; P17230 1-44; P14627 1-29; Q41385 48-216) | 1 | – | – | –
B1 | – | binds | – | –
B2 | – | binds | binds | binds
